The data set in a line: label from the status in PepcDB records.
With “MQRTLDITQAMIDGYGRINGDNDIIHYDHDYAVQRGFRGTLLHGPHMTALAADLGARRYASDWLYRGKLHTKWIGPVCPGDTFVAALNEQGEIEAVSGGKTVMVGSASLAD”, the protein production entry is on record as “failed”.
Next, “YLELNEIESIIKDINTKAQKMHSGIHKRFYLFVALMTEFQALNGMRIGEMLAIQNEDIDFDNKSLNINGTIHWFHDESGGFGVKDTTKTESSYRTIGLSSRSCEILKKAILENKKDSKWNDGYLNRNFVFTNHKGNPMQTERFNKILREAAKDVGIDKEVSSHILRHSHISLLSQQGVSLKAIMDRVGHSDHRTTLSIYSHVTEQMDKDMMNKLEQVKLG”: “not failed”.
The entry for “MDIAGYLSFFFASFTTLFIIIDPPGNLPIFIALTERFSDEYREKISKRATIIAFLILFITMVTGGKILDYFGVSISSLKIAGGILLFISSVDILLGGTRREAYKRRAEESIDVDSIAVFPLALPLYTGPGAITAGIVLYSQAGDVVMKLLVVLSAALVYSIVRLSHIYSAPIIRLLGRSGADIAARILAIFLAAIAVEFVFDGLAEKLVSMDL” is “failed”; for “MDTVVLVLMLLTAFNFLLKQTFWKLIAVGIITAICAVFAGLMWPYAIEQSKTQIANWLSNQPLMLDTSVLLSVEVCIQMAYAMLAVHVANDYPVKPRMILMYRFLRWFPGLLIFPVLFSGLVYLIFAFPGTSFQTIAWSYAAFILAAIPCGRFILLYLLPEKELRLELFFLTNALVAVLGIVATVNGKTSAAGVSEIDWKALTGVIVIALAGGILGLLWWNIRNRNKEKSVKQ” it is “failed”; for “MSDDDDIQYIKRQRTLHYGSLEESERKRQNAAASGAAATTTSGTTASSGAGTTTTGTGGQLEDIDSDEDYEESTKKTSNAKQAGAPPPTAATLANKIDDDYFDLEMEMERDKVALLEEFERKKRARQINVSTDDTEIKSNLRQLNEPICYFGEGPAERRRRLKELLAGLGENAINKRQYEDEERKQQQREQDQATWYHEGPDSLRIARLWLADYSLPRAKDRLVRAREALEVPSAARAGRMVEMQKKLQSLAPLCSQVGDTRPVSSAAFSEDSSLLLTSSWSGLCKLWSVPDCELKQTLRGHASYVGGVALRPGVKADEENVVAMASGGHDGAVKLWGFNNEESIADITGHMPHRVSKVAFHPSGRFLATACYDSSWRLWDLEQKTEVLHQEGHAKPVHCLSYHSDGSVLVTGGLDAFGRVWDLRTGRCIMFLEGHLGAVFGVDFSPNGFHIATGSQDNTCKIWDLRRRQPVYTIPAHTNLISDVKYQQECGSFLVTCSYDSTTKIWSNKTWQPLKTLQGHDNKVISVDIAPNSQYIATTSFDRTFKLWSPDS” it is “failed”.
Next, “MKIKILAVLAVVTVIVVSMFMREKREDPSSLVMMNVEALATGEGTSPAICVGTGSVVCPNDGSKVLYYR”: “failed”; “MTIGRAKVYATLSKIFYHLFYDEAIPKDCREIIEKFGEIDFNLRSVLVRELRGSVLIKDMPQSLAEVYESVMKDFYERYGFQASELHADHIAVELAFMSKLVEREISLAQQMKEEELYKIRAAQHRFIKAHLQPLVKNLPSAPLLNFVRDFVREDAKYLYSSLVGEKNEGADNN”: “not failed”.
Consider “SEDINRNPLLPTKEDEKMDGVIYGAYLPNLEKSVIPIGTASESTEPVNRYQIGVNLAGDAWAGYMSPRDNKFNGSKNFTNYFMYENWVNYVYSFMVTDVYSPWMQIKRISQDEGTRNDEIYALAQIIKIAALHRTTDMFGPIPYSQVGKGSFKVAYDSQESVYRSFLKELEEAVQTLDDYSNKSKEVLPAFDIVYNGDVNKWMRFANSLMLRLAIRVRFADAGLAKEYAEKAVKHPAGLINSKELAAQMGKGAGLQMKNPLKVINEEYNDTRMGATIYSYLAGYNDARAAVYFVKNNGFKAVRCGIAKSGDAYNGFTRPNVHEDDPLYWMKASEVCFLKAEGALAGFDMGGSAGDFYNAGIRMSFSENGLDNSSAETYLKDSTRKPANYTDTSNGELSANAPSSITIRWENGATEEEKLERIITQKYLAIFPNGQEAWTEWRRTGYPRQIVVAENKTNSAVLIGNGYDLGGVRRLPYPRTEYEQNGENLHNAISQYLGGVDNAATKVWWDKKSK”, for which the protein production result is “not failed”.
Next, “MVYRDDYFIRHSISVSAVIVRAWITHKYSGRDWNVKWEENLLHAVAKNYTLLQTIPPFERPFKDHQVCLEWNMGYIWNLRANRIPQCPLENDVVALLGFPYASSGENTGIVKKFPRFRNRELEATRRQRMDYPVFTVSLWLYLLHYCKANLCGILYFVDSNEMYGTPSVFLTEEGYLHIQMHLVKGEDLAVKTKFIIPLKEWFRLDISFNGGQIVVTTSIGQDLKSYHNQTISFREDFHYNDTAGYFIIGGSRYVAGIEGFFGPLKYYRLRSLHPAQIFNPLLEKQLAEQIKLYYERCAEVQEIVSVYASAAKHGGERQEACHLHNSYLDLQRRYGRPSMCRAFPWEKELKDKHPSLFQALLEMDLLTVPRNQNESVSEIGGKIFEKAVKRLSSIDGLHQISSIVPFLTDSSCCGYHKASYYLAVFYETGLNVPRDQLQGMLYSLVGGQGSERLSSMNLGYKHYQGIDNYPLDWELSYAYYSNIATKTPLDQHTLQGDQAYVETIRLKDDEILKVQTKEDGDVFMWLKHEATRGNAAAQQRLAQMLFWGQQGVAKNPEAAIEWYAKGALETEDPALIYDYAIVLFKGQGVKKNRRLALELMKKAASKGLHQAVNGLGWYYHKFKKNYAKAAKYWLKAEEMGNPDASYNLGVLHLDGIFPGVPGRNQTLAGEIFHKAAQGGHMEGTLWCSLYYITGNLETFPRDPEKAVVWAKHVAEKNGYLGHVIRKGLNAYLEGSWHEALLYYVLAAETGIEVSQTNLAHICEERPDLARRYLGVNCVWRYYNFSVFQIDAPSFAYLKMGDLYYYGHQNQSQDLELSVQMYAQAALDGDSQGFFNLALLIEEGTIIPHHILDFLEIDSTLHSNNISILQELYERCWSHSNEESFSPCSLAWLYLHLRLLWGAILHSALIYFLGTFLLSILIAWTVQYFQSVSASDPPPRPSQASPDTATSTASPAVTPAADASDQDQPTVTNNPEPRG”: “failed”; “MLAMKLGIVGLGGWVTGAHIPALTDLGIKVDYCADIDEKRVKDLSQKTGCKGYLDYKEMLRNENPDLVLVAVPHSLHAIIALDAINNDANVYVEKPMATSFQEALTLVEASRKRNKILVVGHENRFNPAMLIAKKLIRGGEVGKIYHMRGFYIRQRGIPTSPTFIKKDLAKGGAVFDIGTHIIDLLLFLSDFPTPKSVTGKTYNAFSEDKTKFSAYPSPNLPNFKVEVEDFGSAFLKLGDEISAYVEVSWASYIKENKMEVVILGDNGGIHIDNGVLNFMRNIEDELFISSPLTQQKGSVYREVWRTVMESISKGFPEYPLCSAEQGAIGVAILESIYKSALEGREVKIDIPQWFLKQFQPRALEHHHHHH”: “failed”; “MKFDNKAPIYIQIMDKIKIDIINGTLKPGDKLPSVREMAVKFKVNPNTLQRVYQELERENITYTQRGTGSFVREDSDMIINLKKEMASEVIENFIENIKEFGFGNKDILKIVEDKLNEEEK”: “not failed”.
The entry for “MKYIEPHFISFTQHTLKSQLIPKSFHGMKILQFSDLHLGYYFSLQHLSQVVSKINAVNPDIVLFTGDLIDNYQTYTDTPFVASILKNIQAPFGKFAIYGNHDHGGYGTEYYEHIMRESGFELLLNSKKRIRLMDNSEISIFGLDDILLGKPKIEKTLQHARQNTYNIVLVHEPDIAPQISKYPINLQLSGHSHGGQVQIPFLGAIITPSLAKDYIEGFYTMQDLTLYVNRGLGRTRVPFRFMSKPEITIFTLQHSLEHHHHHH” is “failed”; for “MSLELGQAMVTVAGIGCRKGAASDAIIAAVRAAERAFGVTVDYLATAPLKADEAGLAEAAKGLSLSLEIVAQERLEAVAAETMTFSQASLDHSGSPSVSEAAALAAAGAGARLVAPRLVVGDVTVAIAMTSDAPHGSRSAIEYGEQEEGHHHHHH” it is “not failed”.
“MDAMKYHDLRDFLTLLEQQGELKRITLPVDPHLEITEIADRTLRAGGPALLFENPKGYAMPVLCNLFGTPKRVAMGMGQDDVSALREVGKLLAFLKEPEPPKGFRDLFDKLPQFKQVLNMPTKRLRGAPCQQKIASGDDVDLTRLPVMTCWPDDAAPLITWGLTVTRGPHKERQNLGIYRQQLIGKNKLIMRWLSHRGGALDFQEWLAARPGERFPVSVALGADPATILGAVTPVPDTLSEYAFAGLLRGTKTEVVKCLSNDLEVPASAEIILEGYIEPGEMAPEGPYGDHTGYYNEVDSFPVFTVTHITQREDAIYHSTYTGRPPDEPAVLGVALNEVFVPILQKQFPEIVDFYLPPEGCSYRLAVVTMKKQYAGHAKRVMMGVWSFLRQFMYTKFVIVCDDDVNARDWNDVIWAITTRMDPARDTVLVENTPIDYLDFASPVSGLGSKMGLDATNKWPGETQREWGRPIVKDPEVTARIDAIWDELAIFKLEHHHHHH”: the protein production result is given as “not failed”.
Next, “MSDDLMHEPDAAQAILPPGFLKNPVHLLAFGFGSGAAPRAPGTWGSLAAIPLWYAFSWLPPAAYWLVVLAAFLVGIWLCGKTAADLKVHDHGGIVWDEFVGMWIALGLFPDQLYGVLMAFMLFRLFDVWKPWPINWLDERLPGGLGIMVDDVVAGAMALGCLWAIDVWVMPYIV”: “failed”.
The entry for “MKLKTEPLSNEKNFSKVKKALSSIPQVRDQKFEEETNTVTIKVVCCSPEKVMDKLCSKGRGAIKLIETIDPAKHVAQKPKEPEKPKEAEKPKEPEKPKPAAAPAQGDPSSQRVTHGYNPPPMMGHPVPWSDGPNYGWSRPNGYDERPIYNSYGGWQPPPSQYGGRSHYEEEQPSCSIM” is “failed”; for “MSQLNSVWVFSDNPERYAELFGGAQQWGQQVYAIVQNTEQAQAVMPYGPKCIYVLEQNDALQRTENYAESIAALLKDKHPAMLLLAATKRGKALAARLSVQLNAALVNDATAVDIVDGHICAEHRMYGGLAFAQEKINSPLAIITLAPGVQEPCTRDISHQCPTETVPYVAPRHEILCRERRAKAASSVDLSKAKRVVGVGRGLAAQDDLKMVHELAAVLNAEVGCSRPIAEGENWMERERYIGVSGVLLKSDLYLTLGISGQIQHMVGGNGAKVIVAINKDKNAPIFNYADYGLVGDIYKVVPALISQLNR” it is “failed”; for “MSKDSESNLAQRQSQPKAHADLRINSHWIIPIENTTDHNLVSNILIDHCLLIKDGIILAIEPQSSCQIPATETLDLGQQVLMPGWVNAHGHAAMSLFRGLADDLPLMTWLQEHVWPAEAQHVDEHFVKQGTELAIAEMIQSGTTTFADMYFYPQQSGEAALAAGIRAVCFAPVLDFPTNYAQNADEYIRKAIECNDRFNNHPMNEQGLVQIGFGPHAPYTVSDEPLKEITMLSDQLDMPVQIHLHETDFEVSESLETFNKRPTQRLADIGFLNERVSCVHMTQVDDGDIKILQKTGASIIHCPESNLKLASGFCPIAKLSAANIPLAIGTDGAASNNDLDMFSETKTAALLAKGVSQDASAIPAIEALTMATLGGARALGIDDITGSLKPGKAADIQAIDLNTLSSQPVFDPVSHMVYCTKSTQVSHVWVNGRCLLKNGELTTLNEETLINHAKAWASAIRTPIK” it is “not failed”.
Next, “MSKVDTIQEKLIPPIMKFANSKIITAIKDGVIITMPLTLVGSIFLLIANFPIKSWNSWMTAIFGPNWAVPLTQVSGSTFDIMAIAAVIGIAAQYSKNEGQDPVTAGLLGAVAFLIIMPSYSPINIGDKVGGIVMKHADKVQSVIPKAWTGGKGMIAALIIGVLTGYIYSWFLKRDIRIKLPESVPSGVSNAFSALIPGAVIITGSMLIFIFFNIVTGATALEWIYKVLQIPLQGITDSLGGAIAIPFVISFFWWFGVHGATLIGGVMNSIYQANTLANQDVFKAGHKLIASGAGKNAHIVCQQFQDNFVTLGGSGITLGLVAACFLFARSQRLKQLGKLALVPGCFNINEPVLFGLPIVLNPLMFIPFLICPLVSGILTYFAIYTGLVPCFTAVQAIWTTPPVLSGLIVAGWRGAVLQLIIIAIAAIVYFPFFKSLDKQYYQEEISGEAE”: “failed”; “MDMTYYDHGTPAERWERARMFFDAKDYAAAARVLDGLVAQVPEQTGPRLLLARSYYHSAQLRRAEAELRVVVERDPVEHYARLMLGRTLERQGRQEEADAQLRIASALAGDFAEL”: “failed”.

Values taken from a protein production outcome set (Wang et al. 2014).
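Also: failed if final PepcDB status was selected cloned or expressed and not failed if soluble or beyond.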
